The source of these data is patent US20250052751A1, “COMPOSITIONS AND METHODS FOR DIAGNOSING AUTOIMMUNE AQUAPORINOPATHY” (The Regents of the University of California, priority 2023, published 2025).

pIC50: −log10 of the molar value.

For this assay, the target named is MHC class II I-A^b molecules purified by affinity chromatography (mouse) (UniProt P14434). The experiment in a line: competitive peptide binding assay on purified I-Ab.

Regarding MOG p35-55 (from UniProt Q61885 63-83), the pIC50 (as a rule, the negative decadic logarithm of the IC50, by convention in mol/L) was 6.41.
